Measurements as given in article PMC8464984, “AimR Adopts Preexisting Dimer Conformations for Specific Target Recognition in Lysis-Lysogeny Decisions of Bacillus Phage phi3T” (Biomolecules, 2021).

Assays:
[1] = target: T1, phAimR dimer (N103C-labelled) (Bacillus phage phi3T, UniProt P0DOE3, C136S/C223S/C267S/C6S/C74S/C99S/N103C); assay: smFRET titration of phAimR dimer labelled at N103C (Alexa488/Cy5); type: binding; settings: titration of SAIRGA (20-500 nM) or target DNA (500-8000 nM), GMPRGA at 500 nM
T1 construct: 6xHis (N, cleaved yes); made in house; host or cells: Escherichia coli BL21 (DE3)
Procedure: (§1) The cysteine substitutions of phAimR (phAimR^C6S/C74S/C99S/C136S/C223S/C267S/N103C or phAimR^C6S/C74S/ C99S/C136S/C223S/C267S/D174C) were generated with a standard PCR-based strategy. Proteins were prepared in the same way as the wild-type phAimR. Alexa Fluor 488 C5 maleimide (Alexa488, A10254, Thermo Fisher, Shanghai, China) and Cy5 maleimide (Cy5, PA15131, GE Healthcare, Shanghai, China) were used as fluorescence donor and acceptor, respectively. A desalting column (HiPrep 26/10, GE Healthcare, Shanghai, China) was used to exchange the protein buffer into the conjugation buffer containing 20 mM phosphate (pH 7.4) and 100 mM NaCl. The protein fraction was collected in premixed Alexa488 and Cy5 dyes. The conjugation of phAimR was performed with Alexa488 and Cy5 at a molar ratio of 1:4:4. Conjugation reaction was performed for 3 h at room temperature in the dark, and the mixture was then purified using a Source-Q column (GE Healthcare, Shanghai, China). The fractions of double-labeled protein that had absorption at 280 nm, 493 nm and 640 nm were collected for smFRET data collection.
(§2) The laser confocal fluorescence microscope MicroTime 200 (PicoQuant, Berlin, Germany) was used for single-molecule imaging, and a pulsed interleaved excitation (PIE) scheme was used with two SPCM-AQRH detectors (Excelitas, Waltham, MA, USA) for recording fluorescence time traces at two different wavelengths. Two picosecond-pulsed diode laser heads (LDH-P-C-485 and LDH-P-C-640; PicoQuant, Berlin, Germany) were driven by a PDL 828 Sepia II driver (PicoQuant) at a repetition rate of 40 MHz, which allowed interleaved excitations for Alexa488 and Cy5. Each laser was coupled to the inverted microscope IX 73 (Olympus, Beijing, China) through a single-mode fiber, and was reflected by a dichroic mirror through a water-immersion objective (UPLSAPO 60×, N.A. 1.20). The protein sample was loaded onto a hybridization chamber (Thermo Fisher) glued to a glass coverslip (Thermo Fisher, Shanghai, China). The laser confocal point was set to about 50 μm above the coverslip. The excitation power at the back of the objective was about 100 μW for the 485 nm laser and about 35 μW for the 640 nm laser, as estimated with a power meter (PM20-FC; Thorlabs, Shanghai, China). Focused to a 100 μm pinhole, the fluorescence emission from the excited protein molecule was collected with the same objective. The donor and acceptor emissions were separated with a dichroic mirror (T635lpxr; Chroma, Xiamen, China). The donor emission was filtered with a 520/35 BP band pass, and the acceptor emission was filtered with a 690/70 BP band pass, before being focused onto the two SPCM-AQRH detectors.
(§3) The fluorescence outputs were recorded with a TimeHarp 260 PCI board (PicoQuant, Berlin, Germany) built into a PC workstation, and the data were stored in the time-tagged time-resolved module (PicoQuant, Berlin, Germany). The photon counts including fDex/Dem, fDex/Aem and fAex/Aem were obtained by binning the photons in 1 ms bins using SymPhoTime64 software (PicoQuant, Berlin, Germany). […] With all three fluorescence time traces recorded, the signals from the donor-only or acceptor-only protein molecules were filtered out, so as to ensure that an fDex/Aem photon only arises from a doubly labeled protein. […]

[2] = target: T2, phAimR dimer (D174C-labelled) (Bacillus phage phi3T, UniProt P0DOE3, C136S/C223S/C267S/C6S/C74S/C99S/D174C); assay: smFRET titration of phAimR dimer labelled at D174C (Alexa488/Cy5); type: binding; settings: titration of SAIRGA or target DNA, GMPRGA at 500 nM
T2 construct: 6xHis (N, cleaved yes); made in house; host or cells: Escherichia coli BL21 (DE3)
Procedure: as §1, §2, §3

[3] = tested on: phAimR–target DNA interaction; assay: Electrophoretic mobility shift assay, phAimR binding to target DNA; type: biochemical, Bacillus phage phi3T; settings: 5 nM FAM-labelled 41 bp DNA; 0, 0.037, 0.11, 0.33 and 1 M (so in the source) phAimR, peptide 10-fold molar excess; 25 mM Tris-HCl pH 8.0, 150 mM NaCl, room temperature, 10 min; three biological replicates
Procedure: DNA probes were annealed using boiling water with FAM-labeled primers to generate the 41 bp DNA fragment (70262-70302, 5′ […] 3′) from phi3T bacteriophage genome. The labeled probes (5 nM) were incubated with 0, 0.037, 0.11, 0.33 and 1 M phAimR proteins or peptide-bound phAimR complex (peptide is 10-fold molar excess of phAimR) in a buffer containing 25 mM Tris-HCl (pH 8.0), 5 mM MgCl2, 5 mM DTT, 0.1 mg·mL^−1 BSA, 10% glycerol and 150 mM NaCl at room temperature for 10 min. The reactions were resolved on 6% native acrylamide gels (37.5:1 acrylamide:bis-acrylamide) in 0.5× TBE buffer at 100 V for 75 min. Images of the gels were obtained using FLA5100 (Typhoon, Shanghai, China).
Figure S 6. EMSA characterize the interaction between phAimR and target DNA. The phi 3T-derived SAIRGA peptide abolishes the DNA binding ability of phAimR, whereas the SP beta-derived GMPRGA peptide has no effects. Each EMSA experiments was conducted for three biological replicates.
F ig u re S 7. Comparison of cross-correlation function GAD(τ) between apo phAimR ( b l a c k line), in complex with 500 nM SAIRGA peptide (blue line) and 8000 nM target DNA (red line). FCS data was collected forthe N103C dyes -labeled phAimR dimer. […]

spAimR = settings: cited from earlier work
[4] = target: the molecule itself; assay: SEC; Superdex 200 Increase 10/300 GL; 8.2 uM protein without peptide; 25 mM Tris-HCl pH 8.0, 300 mM NaCl
[5] = target: the molecule itself; assay: SEC-MALS; static light scattering; 1.6 mg/mL protein without peptide; Superdex 200 Increase 10/300 with HELEOS multi-angle light scattering; 25 mM Tris-HCl pH 8.0, 300 mM NaCl
phAimR N103C-labeled = target: T3, phAimR N103C-labeled (Bacillus phage phi3T, UniProt P0DOE3 1-378, C6S;C74S;C99S;C136S;C223S;C267S;N103C); assay: smFRET titration; no peptide; EMSA: 25 mM Tris-HCl pH 8.0, 150 mM NaCl, 5 mM MgCl2, 5 mM DTT, 0.1 mg/mL BSA, 10% glycerol, room temperature 10 min, 5 nM probe, protein 0-1 (printed 'M', probably uM); smFRET titration buffer not in the material; settings: protein: recombinant; tags: N-terminal 6xHis removed with drICE protease; Alexa488/Cy5 maleimide at C103; chain copies: 2; blunt
T3 sequence: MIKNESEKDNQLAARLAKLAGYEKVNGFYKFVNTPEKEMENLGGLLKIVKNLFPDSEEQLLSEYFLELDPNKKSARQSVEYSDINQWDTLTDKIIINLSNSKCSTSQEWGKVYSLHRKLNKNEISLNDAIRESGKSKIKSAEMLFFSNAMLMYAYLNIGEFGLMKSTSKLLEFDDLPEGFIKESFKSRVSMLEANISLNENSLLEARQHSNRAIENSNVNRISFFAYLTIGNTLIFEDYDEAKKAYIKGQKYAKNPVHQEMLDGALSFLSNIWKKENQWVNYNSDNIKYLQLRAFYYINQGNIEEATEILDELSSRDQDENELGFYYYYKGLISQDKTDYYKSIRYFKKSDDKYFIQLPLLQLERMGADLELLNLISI

phAimR D174C-labeled = target: T4, phAimR D174C-labeled (Bacillus phage phi3T, UniProt P0DOE3 1-378, C6S;C74S;C99S;C136S;C223S;C267S;D174C); assay: as above; settings: protein: recombinant; tags: N-terminal 6xHis removed with drICE protease; Alexa488/Cy5 at C174; chain copies: 2; blunt
T4 sequence: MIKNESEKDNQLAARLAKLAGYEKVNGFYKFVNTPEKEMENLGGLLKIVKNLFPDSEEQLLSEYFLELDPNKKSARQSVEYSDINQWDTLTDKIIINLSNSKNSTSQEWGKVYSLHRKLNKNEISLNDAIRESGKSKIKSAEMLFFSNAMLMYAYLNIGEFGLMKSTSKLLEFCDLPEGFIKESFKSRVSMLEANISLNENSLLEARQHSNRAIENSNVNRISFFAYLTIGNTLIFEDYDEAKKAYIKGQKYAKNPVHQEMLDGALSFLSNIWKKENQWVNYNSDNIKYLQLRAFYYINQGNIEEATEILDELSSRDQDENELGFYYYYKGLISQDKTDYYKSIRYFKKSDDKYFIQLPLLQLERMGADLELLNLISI

phAimR wild type = target: T5, phAimR wild type (Bacillus phage phi3T, UniProt P0DOE3 1-378); assay: EMSA; no peptide; 5 mM MgCl2; EMSA: 25 mM Tris-HCl pH 8.0, 150 mM NaCl, 5 mM MgCl2, 5 mM DTT, 0.1 mg/mL BSA, 10% glycerol, room temperature 10 min, 5 nM probe, protein 0-1 (printed 'M', probably uM); smFRET titration buffer not in the material; settings: protein: recombinant; tags: N-terminal 6xHis removed with drICE protease; chain copies: 2; label: FAM; blunt
T5 sequence: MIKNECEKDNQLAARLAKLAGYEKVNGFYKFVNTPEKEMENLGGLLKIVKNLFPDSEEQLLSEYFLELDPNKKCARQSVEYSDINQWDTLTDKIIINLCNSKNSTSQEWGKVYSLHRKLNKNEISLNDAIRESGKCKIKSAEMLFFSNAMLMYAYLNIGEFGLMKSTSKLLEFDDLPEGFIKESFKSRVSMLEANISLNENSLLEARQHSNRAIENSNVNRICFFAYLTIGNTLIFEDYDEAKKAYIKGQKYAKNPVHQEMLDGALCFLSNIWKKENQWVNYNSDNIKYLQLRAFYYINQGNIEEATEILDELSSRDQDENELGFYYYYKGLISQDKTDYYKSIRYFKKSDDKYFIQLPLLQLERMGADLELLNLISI

## GMPRGA [SPbeta arbitrium peptide (GMPRGA), negative control, reference compound]
[1]
  effect on smFRET profile / conformational state enriched: no perturbation on the smFRET profile of phAimR
[2]
  effect on smFRET profile / conformational state enriched: no perturbation on the smFRET profile of phAimR
[3]
  effect on DNA binding ability of phAimR (EMSA): no effects
spAimR
  Kd: 0.0046 µM

B1: AimR from Phi3T phage (phAimR), wild type (natural protein, Bacillus phage phi3T)
chain: MIKNECEKDNQLAARLAKLAGYEKVNGFYKFVNTPEKEMENLGGLLKIVKNLFPDSEEQLLSEYFLELDPNKKCARQSVEYSDINQWDTLTDKIIINLCNSKNSTSQEWGKVYSLHRKLNKNEISLNDAIRESGKCKIKSAEMLFFSNAMLMYAYLNIGEFGLMKSTSKLLEFDDLPEGFIKESFKSRVSMLEANISLNENSLLEARQHSNRAIENSNVNRICFFAYLTIGNTLIFEDYDEAKKAYIKGQKYAKNPVHQEMLDGALCFLSNIWKKENQWVNYNSDNIKYLQLRAFYYINQGNIEEATEILDELSSRDQDENELGFYYYYKGLISQDKTDYYKSIRYFKKSDDKYFIQLPLLQLERMGADLELLNLISI
notes: AimR transcription factor of Bacillus phage phi3T, codon-optimized cDNA (GenBank KY030782.1) in pET15b; theoretical mass printed as 44.3 kDa; 6x His tag removed with drICE protease; Dimer by SLS, AUC and SAXS; also called phi3T AimR; wild-type phAimR; source: E. coli BL21 (DE3), purified (Ni-NTA, anion exchange, size-exclusion chromatography); not shown: His6, N-terminal, cleaved
[4]
  stoichiometry N: 2
[5]
  stoichiometry N: ~2

B2: phi3T target DNA (smFRET titration) (dsDNA)
DNA 1: GAAATGTCCAGAAATTCAAAAATCAAAAAATAAGAACATGG
DNA 2: CCATGTTCTTATTTTTTGATTTTTGAATTTCTGGACATTTC
phAimR N103C-labeled
  Kd: 1.65 ± 0.0446 µM
phAimR D174C-labeled
  Kd: 1.26 ± 0.218 µM

B3: phi3T target DNA 41 bp, FAM probe (dsDNA)
DNA 1: GAAATGTCCAGAAATTCAAAAATCAAAAAATAAGAACATGG
DNA 2: CCATGTTCTTATTTTTTGATTTTTGAATTTCTGGACATTTC
phAimR wild type
  binding result: binds
